Measurements taken from patent US20200392227A1 (LYVGEN BIOPHARMA, published 2020).
Like-named read-outs stand apart in the source and are kept apart here. One block for each binder: values may come before it.

Columns and labels:
[1] = molecular target: T1, human FcγRIIC expressed on CHO cells (human, UniProt P31995 43-323); assay: FACS, CHO cells expressing FcγRIIC
T1 construct: whole, on cells
T1 sequence (looked up): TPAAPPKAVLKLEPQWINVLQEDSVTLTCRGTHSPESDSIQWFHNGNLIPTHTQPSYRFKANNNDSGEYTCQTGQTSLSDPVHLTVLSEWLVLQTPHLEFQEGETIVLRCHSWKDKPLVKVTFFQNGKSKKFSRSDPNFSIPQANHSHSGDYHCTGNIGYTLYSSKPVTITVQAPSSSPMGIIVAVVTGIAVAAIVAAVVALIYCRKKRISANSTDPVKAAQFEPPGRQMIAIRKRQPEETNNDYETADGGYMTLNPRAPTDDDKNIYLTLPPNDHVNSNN
Experimental: For FACS analysis of the IgG mutants' binding to different FcγRs, FcγR overexpressing CHO cells were harvested using trypsin-EDTA and were suspended in cold staining buffer (3% BSA in PBS). Test IgG mutants, which were diluted in staining buffer, were added into the cells. The mixture was incubated 4° C. for 2 hours, and then washed twice with cold staining buffer and re-suspended in PE-labeled anti-human IgG followed by incubation at 4° C. for 2 hours. The mixture was washed twice with staining buffer and re-suspended in 2% PFA in PBS for FACS.

[2] = molecular target: T2, human FcRI protein (MednaBio, E1031) (human, UniProt P12314 16-288, limits assumed); assay: BLI
T2 construct: Bought; loaded on anti-penta-HIS biosensors; also called FcγRI
Outline: (§1)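 Binding was measured by biolayer interferometry on an Octet Red96 System, with commercial human Fc receptor proteins loaded at 20 μg/mL onto anti-penta-HIS biosensors. Sensors were dipped into an 8-point 1:3 dilution series of test IgG starting at 300 nM in PBS with 0.1% BSA and 0.02% Tween-20. Fcγ receptor assays ran at pH 7.2 and FcRn assays at pH 6. Kd, kon and koff came from global fitting to a 1:1 binding model.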

[3] = molecular target: T3, human FcRIIIB protein (MednaBio, E1037) (human, UniProt O75015 17-200); assay: BLI
T3 construct: Bought; also called FcγRIIIB; FcgRIIIB
Outline: as §1

[4] = molecular target: T4, human FcRn protein (MednaBio, E1032) (human, UniProt P55899 24-297; P61769 21-119); assay: BLI
T4 construct: Bought; assays at pH 6
Outline: as §1

[5] = molecular target: T5, human FcRIIB/C protein (MednaBio, E1034) (human, UniProt P31994 43-217, limits assumed); assay: BLI
T5 construct: Bought as FcRIIB/C; also called FcγRIIB; CD32B
T5 sequence (looked up): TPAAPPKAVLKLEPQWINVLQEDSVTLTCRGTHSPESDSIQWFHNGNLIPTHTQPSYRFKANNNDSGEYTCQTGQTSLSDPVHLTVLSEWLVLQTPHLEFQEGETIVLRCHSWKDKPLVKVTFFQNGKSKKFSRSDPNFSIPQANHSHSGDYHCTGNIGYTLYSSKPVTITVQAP
Outline: as §1

[6] = molecular target: T6, human FcRIIIA-F158 protein (MednaBio, E1036) (human, UniProt P08637 17-208); assay: BLI
T6 construct: Bought; also called FcγRIIIA(F)
Outline: as §1

[7] = molecular target: T7, human FcRIIIA-V158 protein (MednaBio, E1035) (human, UniProt P08637 17-208); assay: BLI
T7 construct: Bought; also called FcγRIIIA(V); FcgRIIIA(V)
Outline: as §1

[8] = molecular target: T8, human FcRIIA protein (MednaBio, E1033) (human, UniProt P12318 34-218, limits assumed); assay: BLI
T8 construct: Bought; also called FcγRIIA
T8 sequence (looked up): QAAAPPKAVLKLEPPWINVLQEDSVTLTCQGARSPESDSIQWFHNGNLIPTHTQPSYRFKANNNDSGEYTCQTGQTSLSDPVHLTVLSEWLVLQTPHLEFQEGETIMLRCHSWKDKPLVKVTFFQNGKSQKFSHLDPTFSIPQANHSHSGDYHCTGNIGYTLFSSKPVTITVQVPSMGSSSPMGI
Outline: as §1

[9] = molecular target: T2, human FcRI protein (MednaBio, E1031); assay: BLI; remark: listed apart in the source
Outline: as §1

[10] = molecular target: T4, human FcRn protein (MednaBio, E1032); assay: BLI; remark: listed apart in the source
Outline: as §1

[11] = molecular target: T5, human FcRIIB/C protein (MednaBio, E1034); assay: BLI; remark: listed apart in the source
Outline: as §1

[12] = molecular target: T8, human FcRIIA protein (MednaBio, E1033); assay: BLI; remark: listed apart in the source
Outline: as §1

[13] = molecular target: T2, human FcRI protein (MednaBio, E1031); assay: BLI; remark: listed apart in the source
Outline: as §1

[14] = molecular target: T3, human FcRIIIB protein (MednaBio, E1037); assay: BLI; remark: listed apart in the source
Outline: as §1

[15] = molecular target: T4, human FcRn protein (MednaBio, E1032); assay: BLI; remark: listed apart in the source
Outline: as §1

[16] = molecular target: T5, human FcRIIB/C protein (MednaBio, E1034); assay: BLI; remark: listed apart in the source
Outline: as §1

[17] = molecular target: T6, human FcRIIIA-F158 protein (MednaBio, …); assay: BLI; remark: listed apart in the source
Outline: as §1

[18] = molecular target: T7, human FcRIIIA-V158 protein (MednaBio, …); assay: BLI; remark: listed apart in the source
Outline: as §1

[19] = molecular target: T8, human FcRIIA protein (MednaBio, E1033); assay: BLI; remark: listed apart in the source
Outline: as §1

[20] = molecular target: T9, human FcγRI expressed on CHO cells (human, UniProt P12314 16-374); assay: FACS, CHO cells expressing FcγRI
T9 construct: whole, on cells
Outline: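 Trypsin-harvested CHO cells overexpressing each FcγR were incubated 2 h at 4 °C with IgG mutants in 3% BSA/PBS. Bound IgG was detected with PE-labeled anti-human IgG (2 h, 4 °C), then cells were fixed in 2% PFA and analysed by flow cytometry.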

T2 sequence (P12314 16-288 limits assumed): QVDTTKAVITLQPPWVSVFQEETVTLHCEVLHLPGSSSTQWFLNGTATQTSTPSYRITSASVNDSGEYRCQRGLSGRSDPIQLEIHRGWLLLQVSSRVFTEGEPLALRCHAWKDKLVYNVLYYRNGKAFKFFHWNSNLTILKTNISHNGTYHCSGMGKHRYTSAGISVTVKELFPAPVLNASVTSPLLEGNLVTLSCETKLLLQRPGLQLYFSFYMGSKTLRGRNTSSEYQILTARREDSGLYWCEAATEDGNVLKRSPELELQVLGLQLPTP
T7 sequence (P08637 17-208 F176V): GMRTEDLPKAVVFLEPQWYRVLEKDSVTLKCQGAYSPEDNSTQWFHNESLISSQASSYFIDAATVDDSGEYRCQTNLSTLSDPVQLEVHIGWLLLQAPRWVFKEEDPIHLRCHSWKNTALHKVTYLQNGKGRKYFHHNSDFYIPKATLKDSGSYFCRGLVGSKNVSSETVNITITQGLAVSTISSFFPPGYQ
T3 sequence (O75015 17-200 limits assumed): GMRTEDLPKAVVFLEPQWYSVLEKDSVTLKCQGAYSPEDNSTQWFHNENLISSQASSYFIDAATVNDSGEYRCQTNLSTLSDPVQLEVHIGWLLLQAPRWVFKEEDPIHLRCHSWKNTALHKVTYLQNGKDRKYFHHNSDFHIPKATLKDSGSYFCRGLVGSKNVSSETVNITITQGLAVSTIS
T6 sequence (P08637 17-208 limits assumed): as the sequence (P08637 17-208 F176V) above, with V160F counted along it
T9 sequence (P12314 16-374): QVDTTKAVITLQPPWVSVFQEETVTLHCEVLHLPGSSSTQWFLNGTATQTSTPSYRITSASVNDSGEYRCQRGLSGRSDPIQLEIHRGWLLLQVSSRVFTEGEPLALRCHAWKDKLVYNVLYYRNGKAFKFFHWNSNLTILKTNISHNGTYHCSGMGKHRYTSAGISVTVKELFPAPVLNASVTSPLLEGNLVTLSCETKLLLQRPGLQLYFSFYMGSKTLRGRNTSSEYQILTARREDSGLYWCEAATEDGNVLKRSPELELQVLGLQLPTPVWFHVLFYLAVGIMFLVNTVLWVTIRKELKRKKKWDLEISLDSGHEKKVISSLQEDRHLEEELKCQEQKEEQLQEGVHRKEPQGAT

binding result [1]: binds | Kd [2]: 120 nM | koff [2]: 0.086 s⁻¹ | kon [2]: 710000 M⁻¹ s⁻¹ | binding result [3]: no binding (tested: 300 nM) | Kd [4]: 13.4 nM | koff [4]: 0.0103 s⁻¹ | kon [4]: 770000 M⁻¹ s⁻¹ | Kd [5]: 110 nM | koff [5]: 0.028 s⁻¹ | kon [5]: 260000 M⁻¹ s⁻¹ | binding result [6]: no binding (tested: 300 nM) | binding result [7]: no binding (tested: 300 nM) | Kd [8]: 81 nM | koff [8]: 0.019 s⁻¹ | kon [8]: 240000 M⁻¹ s⁻¹
B1: anti-CD137 IgG1 with Fc variant G1m19 (antibody)
heavy: EVQLVQSGAEVKKPGESLRISCKGSGYSFSTYWISWVRQMPGKGLEWMGKIYPGDSYTNYSPSFQGQVTISADKSISTAYLQWSSLKASDTAMYYCARGYGIFDYWGQGTLVTVSSASTKGPSVFPLAPSSKSTSGGTAALGCLVKDYFPEPVTVSWNSGALTSGVHTFPAVLQSSGLYSLSSVVTVPSSSLGTQTYICNVNHKPSNTKVDKKVEPKSCDKTHTCPPCPAPELLSVFLFPPKPKDTLMISRTPEVTCVVVDVEHEDPEVKFNWYVDGVEVHNAKTKPREEQYNSTYRVVSVLTVLHQDWLNGKEYKCKVSNKAFPAPIEKTISKAKGQPREPQVYTLPPSREEMTKNQVSLTCLVKGFYPSDIAVEWESNGQPENNYKTTPPVLDSDGSFFLYSKLTVDKSRWQQGNVFSCSVMHEALHNHYTQKSLSLSPGK
light: SYELTQPPSVSVSPGQTASITCSGDNIGDQYAHWYQQKPGQSPVLVIYQDKNRPSGIPERFSGSNSGNTATLTISGTQAMDEADYYCATYTGFGSLAVFGGGTKLTVLGQPKAAPSVTLFPPSSEELQANKATLVCLISDFYPGAVTVAWKADSSPVKAGVETTTPSKQSNNKYAASSYLSLTPEQWKSHRSYSCQVTHEGSTVEKTVAPTECS
notes: copies: 2 + 2

Kd [9]: 44 nM | koff [9]: 0.023 s⁻¹ | kon [9]: 520000 M⁻¹ s⁻¹ | Kd [10]: 23 nM | koff [10]: 0.013 s⁻¹ | kon [10]: 560000 M⁻¹ s⁻¹ | Kd [11]: 78 nM | koff [11]: 0.013 s⁻¹ | kon [11]: 170000 M⁻¹ s⁻¹ | Kd [12]: 260 nM | koff [12]: 0.027 s⁻¹ | kon [12]: 100000 M⁻¹ s⁻¹ | binding result [1]: binds
B2: anti-CD137 IgG4 with Fc variant G4m29 (antibody)
heavy: EVQLVQSGAEVKKPGESLRISCKGSGYSFSTYWISWVRQMPGKGLEWMGKIYPGDSYTNYSPSFQGQVTISADKSISTAYLQWSSLKASDTAMYYCARGYGIFDYWGQGTLVTVSSASTKGPSVFPLAPCSRSTSESTAALGCLVKDYFPEPVTVSWNSGALTSGVHTFPAVLQSSGLYSLSSVVTVPSSSLGTKTYTCNVDHKPSNTKVDKRVESKYGPPCPPCPAPEFLGPSVFLFPPKPKDTLMISRTPEVTCVVVDVEQEDPEVQFNWYVDGVEVHNAKTKPREEQFNSTYRVVSVLTVLHQDWLNGKEYKCKVSNKGFPSSIEKTISKAKGQPREPQVYTLPPSQEEMTKNQVSLTCLVKGFYPSDIAVEWESNGQPENNYKTTPPVLDSDGSFFLYSRLTVDKSRWQEGNVFSCSVMHEALHNHYTQKSLSLSLGK
light: SYELTQPPSVSVSPGQTASITCSGDNIGDQYAHWYQQKPGQSPVLVIYQDKNRPSGIPERFSGSNSGNTATLTISGTQAMDEADYYCATYTGFGSLAVFGGGTKLTVLGQPKAAPSVTLFPPSSEELQANKATLVCLISDFYPGAVTVAWKADSSPVKAGVETTTPSKQSNNKYAASSYLSLTPEQWKSHRSYSCQVTHEGSTVEKTVAPTECS
notes: copies: 2 + 2

binding result [13]: no binding (tested: 300 nM) | binding result [14]: no binding (tested: 300 nM) | Kd [15]: 35.4 nM | koff [15]: 0.00941 s⁻¹ | kon [15]: 265000 M⁻¹ s⁻¹ | Kd [16]: 240 nM | koff [16]: 0.0387 s⁻¹ | kon [16]: 162000 M⁻¹ s⁻¹ | binding result [17]: no binding (tested: 300 nM) | binding result [18]: no binding (tested: 300 nM) | Kd [19]: 336 nM | koff [19]: 0.0836 s⁻¹ | kon [19]: 249000 M⁻¹ s⁻¹ | binding result [20]: no binding (tested: 10 ug/mL)
B3: anti-CD137 IgG2 with Fc variant G2m19 (antibody)
heavy: EVQLVQSGAEVKKPGESLRISCKGSGYSFSTYWISWVRQMPGKGLEWMGKIYPGDSYTNYSPSFQGQVTISADKSISTAYLQWSSLKASDTAMYYCARGYGIFDYWGQGTLVTVSSASTKGPSVFPLAPCSRSTSESTAALGCLVKDYFPEPVTVSWNSGALTSGVHTFPAVLQSSGLYSLSSVVTVPSSNFGTQTYTCNVDHKPSNTKVDKTVERKCCVECPPCPAPPVASVFLFPPKPKDTLMISRTPEVTCVVVDVEHEDPEVQFNWYVDGVEVHNAKTKPREEQFNSTFRVVSVLTVVHQDWLNGKEYKCKVSNKGFPAPIEKTISKTKGQPREPQVYTLPPSREEMTKNQVSLTCLVKGFYPSDIAVEWESNGQPENNYKTTPPMLDSDGSFFLYSKLTVDKSRWQQGNVFSCSVMHEALHNHYTQKSLSLSPGK
light: SYELTQPPSVSVSPGQTASITCSGDNIGDQYAHWYQQKPGQSPVLVIYQDKNRPSGIPERFSGSNSGNTATLTISGTQAMDEADYYCATYTGFGSLAVFGGGTKLTVLGQPKAAPSVTLFPPSSEELQANKATLVCLISDFYPGAVTVAWKADSSPVKAGVETTTPSKQSNNKYAASSYLSLTPEQWKSHRSYSCQVTHEGSTVEKTVAPTECS
notes: copies: 2 + 2

Kd [9]: 56 nM | koff [9]: 0.027 s⁻¹ | kon [9]: 490000 M⁻¹ s⁻¹ | Kd [10]: 20 nM | koff [10]: 0.012 s⁻¹ | kon [10]: 580000 M⁻¹ s⁻¹ | Kd [11]: 180 nM | koff [11]: 0.034 s⁻¹ | kon [11]: 190000 M⁻¹ s⁻¹ | Kd [12]: 1800 nM | koff [12]: 0.055 s⁻¹ | kon [12]: 31000 M⁻¹ s⁻¹ | binding result [1]: binds
B4: anti-CD137 IgG4 with Fc variant G4m28 (antibody)
heavy: EVQLVQSGAEVKKPGESLRISCKGSGYSFSTYWISWVRQMPGKGLEWMGKIYPGDSYTNYSPSFQGQVTISADKSISTAYLQWSSLKASDTAMYYCARGYGIFDYWGQGTLVTVSSASTKGPSVFPLAPCSRSTSESTAALGCLVKDYFPEPVTVSWNSGALTSGVHTFPAVLQSSGLYSLSSVVTVPSSSLGTKTYTCNVDHKPSNTKVDKRVESKYGPPCPPCPAPEFLGPSVFLFPPKPKDTLMISRTPEVTCVVVDVSQEDPEVQFNWYVDGVEVHNAKTKPREEQFNSTYRVVSVLTVLHQDWLNGKEYKCKVSNKGFPSSIEKTISKAKGQPREPQVYTLPPSQEEMTKNQVSLTCLVKGFYPSDIAVEWESNGQPENNYKTTPPVLDSDGSFFLYSRLTVDKSRWQEGNVFSCSVMHEALHNHYTQKSLSLSLGK
light: SYELTQPPSVSVSPGQTASITCSGDNIGDQYAHWYQQKPGQSPVLVIYQDKNRPSGIPERFSGSNSGNTATLTISGTQAMDEADYYCATYTGFGSLAVFGGGTKLTVLGQPKAAPSVTLFPPSSEELQANKATLVCLISDFYPGAVTVAWKADSSPVKAGVETTTPSKQSNNKYAASSYLSLTPEQWKSHRSYSCQVTHEGSTVEKTVAPTECS
notes: copies: 2 + 2
